Here are results for six variants from IntAct's records for PubMed 25487150.

To fix the notation:
B1: Spindle pole body-associated protein cut12 (Schizosaccharomyces pombe (strain ATCC 38366 / 972)), O59755 (parent)
chain: MSETLNTPPTYAWVLKAFSSKLAGTVTKPVTKMSSYIEDAESDAELPQDAKEDLRPTETLTPLKSKAAQNGILKTPGTLQIKKTVNFKDISKDAATWNRPTKNNFLFTRLDDENPLMGHEEFKSPLLQSTPKPNINNPDNENKSKHDEFDNRYNININESYKNETKSNQRLGEDVPSKKKYPHSMDAEISKFKWDSNNNNDWSSLMKDCFRDVVNNNRKMKEIIKDVMIDTSQAFPSESLDEPDYTINLDAPRSSSGKYWKQKFSMLDSAHSDLELELTSIRERLESLILEKQEEINFWKQRCRALETEKIHNHQGQQSKYKGKEFVGNRFSQMRELYTAKPSPITTKVVSRPSQSDVREPQEQVPSKNLHRGADMSHLAAQMLTHSSKKSHTTNLIPSEGIISSTPISAASKVRMNLMQSNQTPTPAPFSIAAKKSHLPSKLSFPQDGGSLSSATTLQQLPKARVTPNVLSSLSSNLGKTNPTSVYQSKANVTTSADVEKPQVKVATSSRVDYDLKSPNQRTANAKKRLEERRRRRKLKLQELQLNS
B2: Protein phosphatase PP2A regulatory subunit B (Schizosaccharomyces pombe (strain ATCC 38366 / 972)), Q12702 (parent)
chain: MDDIEDSLDQWKFAQCFGDKGDVEDITEADIISAVEFDHTGDYLATGDKGGRVVLFERNHSKKGCEYKFFTEFQSHEPEFDYLKSLEIEEKINKIRWCKRTNRAHFLLSTNDKTIKLWKLYEKNLKVVAENNLSDSFHSPMQGPLTTPSQLRLPRLNHHDMIIAAYPRRVYANAHAYHINSISVNSDAETYISADDLRINLWNLSISDHSFNIVDIKPENMEELTEVITSAEFHPINCNHLMYSSSKGNIKLLDLRQSALCDNPCKLFEDQEDQDSKSFFSEIISSISDVKFSQNGRYILSRDYLTLKIWDVNMEKAPVKTIPLHDVLRSKLCDLYENDCIFDKFECTFSGDDKHVLSGSYSNNFGIYPTDSSLPGDRGQIVLQADKAAFRARKSAANNVPKLNAVKNNDWRSQPQAAMGSASVGLDPDNLDYNKKILHASWHPFEDSVAIAATNNLFVFSKL

One experiment covers variants of B1. The following applies: with pp11_schpo dis2, P13681.
Target sequence in this assay (P13681 whole entry): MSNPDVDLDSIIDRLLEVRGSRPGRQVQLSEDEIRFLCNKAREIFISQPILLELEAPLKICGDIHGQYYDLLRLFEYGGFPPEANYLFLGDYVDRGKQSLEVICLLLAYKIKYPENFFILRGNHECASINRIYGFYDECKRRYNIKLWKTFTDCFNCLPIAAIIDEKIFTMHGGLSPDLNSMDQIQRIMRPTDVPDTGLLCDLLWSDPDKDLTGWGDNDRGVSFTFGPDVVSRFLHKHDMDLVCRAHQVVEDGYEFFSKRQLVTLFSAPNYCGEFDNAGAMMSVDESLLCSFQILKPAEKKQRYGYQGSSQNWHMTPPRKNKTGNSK
With G71V, the “effect of a mutation on the interaction” value is “decreasing interaction strength”. As for I72L;K74R;V85A;F87A, the “effect of a mutation on the interaction” value is “decreasing interaction strength”.

Regarding V85A;F87A, the “effect of a mutation on the interaction” value is “decreasing interaction strength”. As for G71V;K83A;V85A;F87A, the “effect of a mutation on the interaction” value is on record as “disrupting interaction strength”.

In the next experiment the parent is B2. The following applies: with pp11_schpo dis2, P13681.
Target sequence in this assay (P13681 whole entry): as above
Turning to V54A, the “effect of a mutation on the interaction” value is “decreasing interaction strength”. For the variant R52A;V54A;F56A, the “effect of a mutation on the interaction” value is on record as “disrupting interaction strength”.
